Measurements published in paper PMC11429574, “Biophysical and Solution Structure Analysis of Critical Residues Involved in the Interaction between the PupB N-Terminal Signaling Domain and PupR C-Terminal Cell Surface Signaling Domain from Pseudomonas capeferrum” (Biomolecules, 2024).
Residue numbers refer to the chain shown, from its start. Numbers in names are those of the source.

T1: PupB N-terminal signaling domain H72D (Pseudomonas capeferrum), P38047
T1 chain: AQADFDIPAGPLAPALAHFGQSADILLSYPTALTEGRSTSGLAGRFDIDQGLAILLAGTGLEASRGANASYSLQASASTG

B1: MBP-PupR C-terminal cell surface signaling domain (domain or fragment, Pseudomonas capeferrum)
chain: QDWRADYHSRIGEQRRLTLADGTQVQLNTDSALNVAFDQQARRLRLVRGEMLITRPALADSRPLWVDTEHGRLESTLAQFNVRLHGQHTQATVYQGSVALQPALHAYPPILLGAGEQASFNQQGLLARQAVAAVAPAWSQGMLVAQGQPLAAFIEDLARYRRGHLACDPALAGLRVSGTFPLENTDKIIAAVAETLQLEVQHFTRYWVTLKPRMA
notes: PupR, inner membrane sigma regulator (anti-sigma factor) of Pseudomonas capeferrum; periplasmic C-terminal cell surface signaling domain; residues A240 to A300 are named as interface residues; A TEV site lies between MBP and the domain; the MBP fusion was used uncleaved in the ITC for solubility and stability; also called MBP-PupR CCSSD; PupR CCSSD; not shown: MBP, N-terminal, kept
B2: PupB N-terminal signaling domain Q69K (domain or fragment, Pseudomonas capeferrum)
chain: T1 chain with Q21K, D24H
notes: PupB of Pseudomonas capeferrum, N-terminal signaling domain, 82 residues; also called PupB NTSD Q69K; Q79K (misprint in two places); source: pET41 GST-PupB NTSD plasmid

Tests used:
Assay in all cases: ITC; MBP-PupR CCSSD (140-230 µM) titrated into PupB NTSD mutants (20-70 µM); 15 °C; 25 mM HEPES pH 7.5, 400 mM LiCl, 10% glycerol; triplicate, global single-site analysis (NITPIC, SEDPHAT)
[1] = target: T1, PupB N-terminal signaling domain H72D …; conditions: remark: other sources report otherwise
[2] = target: B2; conditions: both partners purified
[3] = target: B1; conditions: both partners purified

Row | Kd [1] [µM] | dH [1] [kcal/mol] | dH [2] [kcal/mol] | Kd [3] [µM] | Binder
1 | 27.7 | -23 | -14.5 |  | B1
2 |  |  |  | 1.55 | B2
